System: MS2 coat protein
Test: apparent KD of MS2 coat protein; higher = weaker reporter binding
Conditions: Eterna round: R107
Outline: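 Apparent KD stands for the median, per design, of fits to normalised cluster binding curves. The curves came from titrating on-chip-transcribed RNA switches on Illumina sequencing clusters with SNAP-549-labelled MS2 coat protein, twofold from 0.7 or 1.5 nM to 3 µM. Buffer was 100 mM Tris-HCl pH 7.5, 80 mM KCl, 4 mM MgCl2, without or with constant ligand.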

[1] = input ligand: theophylline 20 uM
[2] = input ligand: theophylline 2 mM
[3] = input ligand: tryptophan 2.4 mM

| Sequence | apparent KD of MS2 coat protein (input ligand: arginine 13.2 mM) | apparent KD of MS2 coat protein (input ligand: none) | apparent KD of MS2 coat protein [1] | apparent KD of MS2 coat protein [2] | apparent KD of MS2 coat protein [3] |
| --- | --- | --- | --- | --- | --- |
| GGACUAACCAGAAGGAGCGGCGCGCAGAAACUGCAAAAUCCUCCGCACGAGGAUCACCCGUGUCAGGUAGGUCGCUGGUUAGUCG [ArgBX 28] | 18 nM | 17.7 nM | 16.2 nM | 20.8 nM | 17.3 nM |
| GGACUAACUCGAAGGAGCGACGCGCAGAAACUGCAAUUUCCUCCACACGAGGAUCACCCGUGUCAGGUAGGUCGCGAGUUAGUCG [ArgBX 29] | 14.9 nM | 12.8 nM | 18.6 nM | 14.7 nM | 16 nM |
| GGAGGUACCUGAAGGAGCGACAUGAGGAUCACCCAUGUCUCCCGUUAUGGGAGUUCUUUAGGUCAGGUAGGUCGCAGGUACCUCC [#1 Exclusion - Arginine B Attempt #3 (Inspired by Omei)] | 13.7 nM | 88.2 nM |  |  |  |
| GGAGUCGUCACGGCCGCCACUGCGGUGGUGUGACAUGAGGAUCACCCAUGUUGUCAUGCGGCCCUUAGGACCGGGUGUCGGUUCC [#1 Exclusion - Tryptophan B Attempt #23 (HarryS)] | 57.1 nM |  | 85.1 nM | 78.3 nM |  |
| GGAUAGGACACGGCCGCCACUAGCUAGGAUACUAGCAACAUUUCCUCACAUGAGGAUCACCCAUGUAGGACCGGGUGUCCUAUCG | 79.9 nM |  | 145 nM | 112 nM |  |
| GGAUAGGACGGAAGGAGCGACGUGAGGCUAAUGUCCAGUCUUCUACAUGAGGAUCACCCAUGUCAGGUAGGUCGCCGUCCUAUCG [#21 Exclusion - Arginine B] | 30.3 nM | 28.1 nM | 51.7 nM | 40.7 nM | 41.8 nM |
| GGAUGCCACUAUGGAUAGCACGAUGCCGAUACCAGCUAGGAAACUAGCCCUUGGCAGCGGAACAUGAGGAUCACCCAUGUAUCCU [EThA NP+V+V2 #8] | 21.3 nM | 24.2 nM | 30.5 nM | 42.7 nM | 21.6 nM |
| GGAUGGAACUCGGCCGCCACUGGUGAUCCUAAUGUACAUGAGGAUCACCCAUGUACAUGAGAAGAUAGGACCGGGAGAUAACAUG [V5] | 23.5 nM |  | 31.2 nM | 29.4 nM |  |
| GGAUUCAACUCGGCCGCCACUGGUGAUCCUAAUGUACAUGAGGAUCACCCAUGUACAUGAGAAUACAGGACCGGGAGAUAAGCAA [Tryptophan B V2 (+4A)] | 20.1 nM |  | 26.5 nM | 24 nM |  |
| GGCACAUAGUCGGCCGCCACUACGUGGAGAUCGGAGUACAUGAGGAUCACCCAUGUAUGGAAGGGUAGGACCGGGACUAUGUGCC [Horalka] | 38.3 nM | 67.1 nM | 38.5 nM | 123 nM | 18.7 nM |
| GGCACAUAGUCGGCCGCCACUAGGGUGUAGUGGAAUAACAUGAGGAUCACCCAUGUAUUUGGGACUAGGACCGGGACUAUGUGCC [Leopard] | 27.2 nM |  | 40.4 nM | 30 nM |  |
| GGCACCAGGCGAAGGAGCGUGAAGACAUGAGGAUCACCCAUGUAGAGGCCCGGACAGGGUUCGCAGGUAGGUCGCGCCUGGUGCC [#1 Same State - Arginine B Attempt #9 (HarryS)] | 22.9 nM | 16.2 nM | 40.6 nM | 26.8 nM | 13.5 nM |
| GGCAGUCAUAGCAGGGCAAAUAUACUCGAAGGAGCGUCAUAGUAGGCAGGUAGGUCGCGAGACAUGAGGAUCACCCAUGUAGAGA [uuumullin] | 26.1 nM | 68.9 nM | 46 nM | 66 nM | 49.3 nM |
| GGCCAUGGAAACAUGGCGGCGGCAUAUGCGCGAGGACCGGUACGGCCGCCACUCGGGCAACAUGAGGAUCACCCAUGUUCCUCAU [ETA NP+V+V2 #24 +-Same Structure] | 67.4 nM |  | 356 nM | 388 nM |  |
| GGCCUAGCGAGCGCUCGCUAGGCCGCGGAUACCAGCGAGGUCCAUCGCCCUUGGCAGCCGAACAUGAGGAUCACCCAUGUCGGUA [#1 Same State - Theophylline A Attempt #15 (HarryS)] | 9.5 nM | 10.3 nM | 13.4 nM | 16.9 nM | 9.68 nM |
| GGCUAGGUCUCGGCCGCCACUGCUACAUGAGGAUCACCCAUGUACCUGGGCGGUCGCUCCCUCGGCAGGACCGGGAGACAUUCGU [Onarbeisan] | 9.2 nM |  | 13.8 nM | 12.5 nM |  |
| GGGCCCGGGCCCGCGCGGGCCCGGGCCCAACGAGGACCGGUACGGCCGCCACUCGAACGAGUGGGUACAUGAGGAUCACCCAUGU [Baa] | 38.6 nM | 30.7 nM | 55.9 nM | 48.6 nM | 33.4 nM |
| GGGCUUGUGGUGCGGCGUGUUCCGCUCCGUCGAGGACCGGUACGGCCGCCACUCGACAUGAGGAUCACCCAUGUGCGAGCGCGCG [#1 Exclusion - Tryptophan A Attempt #7 (HarryS)] | 11.4 nM | 17.3 nM | 16.1 nM | 15.4 nM | 25.1 nM |
| GGGUCAGGCGCGGCCGCCACUGCGGUGAUGUGACAUGAGGAUCACCCAUGUUGUCAUGUGGCACAUAGGACCGGGUGCCUGGCCC [#1 Exclusion - Tryptophan B Attempt #6 (HarryS)] | 28.3 nM |  | 50.2 nM | 33.8 nM |  |
| GGGUGCGGGAUAGAUACCAGUGCCUUAAAAUAGGCACAUGAGGAUCACCCAUGUACCGGGCGCCCUUGGCAGCUAGUACCAUCCA [Edanrele] | 93.9 nM |  | 190 nM |  | 147 nM |
| GGGUGUGAUCCGGAUACCAGUGAACAUGAGGAUCACCCAUGUGACCUGAGAUCGGCUCUUCACCCUUGGCAGCCGCGGUCGCAGG [Same State Theophylline B GF14] | 11.4 nM | 11.5 nM | 18.6 nM | 10.7 nM | 10 nM |
| GGUAUGUAUUCGGAAACGAAUGCAUACCAACGAGGACCGGUACGGCCGCCACUCGGCGGCGAUCAACAUGAGGAUCACCCAUGUA [Ex Tryptophan A 3] | 26.2 nM |  | 43.7 nM | 42.4 nM |  |
| GGUCUGUGGAGCGAUACCAGCUUGAGUGUACUGGCCAGGUACAUGAGGAUCACCCAUGUAAGCCCUUGGCAGCGCUCCAGAGACC [#1 Exclusion - Theophylline B Attempt #17 (HarryS)] | 7.42 nM | 9.29 nM | 13.8 nM | 31.5 nM | 10.9 nM |
| GGUGACUGCAUGUGGAAUUAAGGUAGGGAAGGAGCGCGGUAAGACGCAGGUAGGUCGCCCUACAUGAGGAUCACCCAUGUGGUGU [Beenmaer] | 114 nM | 121 nM | 135 nM | 500 nM | 36.5 nM |
| GGUGAUCCGUAUCACCGGAUCACCGGUGAUACCAGCAUCGAAAGAUGCCCUUGGCAGCACCAACAUGAGGAUCACCCAUGUAAUA [(M)'-(T)'-(M)''-(T1)-(T2)-(M1)-(M2)_Design6b] | 69.6 nM |  | 62.4 nM |  | 143 nM |
| GGUGGCGUGACGGAUACCAGCCACCACCGUUAGACCACAUGAGGAUCACCCAUGUUGGGUGGCCCUUGGCAGCUGUCGUGCGGCG [#1 Same State - Theophylline B Attempt #18 (HarryS)] | 140 nM | 377 nM | 250 nM | 113 nM | 337 nM |
| GGUGGCUCCAUCGAUACCAGCCACCACCGAUAGACCACAUGAGGAUCACCCAUGUUGGGUGGCCCUUGGCAGCGGUGAAGCUGCC [#1 Same State - Theophylline B Attempt #4 (HarryS)] | 44.1 nM | 304 nM | 416 nM | 34.5 nM | 657 nM |
| GGUUGGUGUAGAGAUAUAUUGAUUACUGAAGGAGCGGGAAGAAACCCAGGUAGGUCGCAGAGAUCCACAUGAGGAUCACCCAUGU [!0.L] | 26.7 nM | 38.6 nM | 49.5 nM | 59.3 nM | 27.5 nM |
| GGUUGGUUUAUAUAUAGAUUGAUUACUGAAGGAGCGGGAAAUAACCCAGGUAGGUCGCAGAGAUCCACAUGAGGAUCACCCAUGU [!0.I] | 34.2 nM | 39.5 nM | 50.6 nM | 53 nM | 42.9 nM |
